141 substances from the supplement of paper PMC12042874 can be followed below.

± gives the uncertainty stated by the source.

The data set in a line: amyloid nucleation score (Sup35N fusion, yeast selection) (log enrichment); library NNK1; higher = more nucleation; inactive = no reads after selection. The gist of the method:
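Three technical output replicates were used for random libraries. Psi-negative yeast expressing peptides of 20 random codons fused to Sup35N were induced with 100 μM copper sulfate for 24 hours and grown 7 days at 30°C on medium lacking adenine and uracil, and input and output plasmid inserts were Illumina-sequenced, excluding sequences with under 100 input reads. The nucleation score is the DiMSum log enrichment of output over input reads, centred on the mode score of non-aggregating sequences.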
The substance MYVFRVLASSVWKSMMLFDL displayed an amyloid nucleation score of 0.146 ± 0.23.
In the case of MYWESSSHEHVSEKPVRLIL it was 1.07 ± 0.84; in that of NADDISVRTGNTQESLSW, 0.275 ± 1.2; in that of NADVTCVISGLRKTYCVSDD, 0.577 ± 0.64.
The same measure for NAPLEWSSGHASQIVLGHVT: -0.177 ± 0.69; for NATNLENQKFTEDALKSPGW: -0.037 ± 0.71.
The same measure for NAVSIRGLRVDRQN: 0.112 ± 0.55.
With NCAFVAS, the amyloid nucleation score is -0.019 ± 0.34.
The same measure for NCGGRVSG: 8.076 ± 0.06.
The same measure for NCIVFVSPASTKDCKWGAAS: 1.66 ± 0.35.
In the case of NCLRNWHKFI it was -0.845 ± 0.7.
For NCRGKREMGRKSSRSLVHGW, the amyloid nucleation score was -0.039 ± 0.49.
In turn, NCYMT registered an amyloid nucleation score of 0.386 ± 0.31.
In the case of NDACYWEFCYADKLYFEWWF it was 1.04 ± 0.44; in that of NDCKSQRSRNSMGCQ, “inactive”.
The same measure for NDDRFSLLCGRGRSGLSEWC: “inactive”; for NDDVSVSVSWPDMEVRWK: -0.179 ± 0.29.
The same measure for NDRKYLCMMRILMSNRRVLQ: 0.553 ± 0.3.
NDVPLLWVISASCG came in with an amyloid nucleation score of 1.02 ± 0.44.
Take NDYFY: the amyloid nucleation score is -0.598 ± 1.4.
The substance NEIYKTA came in with an amyloid nucleation score of -1.12 ± 2.7.
As to NESRM, the amyloid nucleation score turned out to be 1.08 ± 0.58.
In the case of NFCLWHNWYVMSVLERGD it was 7.893 ± 0.071; in that of NFDSELFSPLMISDVREFTK, 1.62 ± 0.47.
The same measure for NFFDLLYFL: 0.175 ± 0.82; for NFHDEV: -1.22 ± 1.5.
The same measure for NFKVQREKGF: “inactive”.
On to NFRGLRLSKIYLLHHAGNLW, for which the amyloid nucleation score was found to be 0.533 ± 0.47.
The same measure for NFSHHSIYGHVPRPEEQNPM: 0.481 ± 1.
For the substance NFVARSLLPNILAGLRGTGC, the amyloid nucleation score is -0.139 ± 0.59.
In the case of NFVFGHNGGACSYVGLLM it was 1 ± 0.7; in that of NFVGFL, -0.33 ± 0.58; in that of NGADTSSQAF, -0.182 ± 1.3.
In the case of NGCLITSWDYCSCRAVYQLT, the amyloid nucleation score is -0.602 ± 0.39.
NGHSVASSVDAVMLCRYRGK came in with an amyloid nucleation score of 0.688 ± 0.69.
Turning to NGNEYMVHRHADKWNTGQYR, the amyloid nucleation score came out at 5.83 ± 0.084.
In the case of NGQRDIEYLSLFSPVGTMNS it was -0.518 ± 0.43.
The same measure for NGSADNIIVYGYDANLRWVR: 0.262 ± 0.43.
With NGSVTNNKNHPFVDYGVRHE, the amyloid nucleation score was -0.468 ± 0.36.
The same measure for NGSYCKQILSRYVCRGECLH: -1.85 ± 1.4; for NGTFVLDVRIRSRRSERPLG: 4.09 ± 0.06.
The same measure for NGVLYFD: 0.371 ± 0.57; for NGYEMVQVLTSFMAAMGVFW: 0.256 ± 0.84.
The same measure for NHSGSFKCGRIVSRYDD: -1.37 ± 0.95; for NICDFLIYVYYLRSVCDI: -0.358 ± 0.41.
For the substance NIGIRI, the amyloid nucleation score came to 0.095 ± 0.39.
With NIISEN, the amyloid nucleation score result is “inactive”.
The same measure for NIVNYFSCLKALNKFLHKMG: 0.609 ± 0.26.
The same measure for NIWVLTYCLVYLSWSNHVF: -0.709 ± 0.78; for NKDYMVVLTDFS: -0.326 ± 0.2.
The substance NKIGRGVVCSRLWTCCSCFM gave an amyloid nucleation score of 8.554 ± 0.079.
On to NKIQQGYMSPYCNHSVFVSF, for which the amyloid nucleation score is -0.296 ± 0.65.
In the case of NKNCLELCLTHGMLNQL it was 0.25 ± 0.36.
In the case of NLENLCLMILRVPVSDVMQP it was “inactive”; in that of NLMEKRSLRAIRWIVRSWAG, 0.839 ± 0.62.
Turning to NLMYAGIRLKGEICTNQVSF, the amyloid nucleation score amounted to 0.371 ± 0.16.
With NLSSTEYAFNISDGEKRHED, the amyloid nucleation score came to 0.186 ± 0.9.
The same measure for NLSTCDE: 1.03 ± 0.58.
In the case of NLSVY it was -0.232 ± 0.74.
In the case of NLTDTKLRDNGKNPALADQV it was -0.226 ± 0.26; in that of NLVVQCADGVILSFWDHMVG, 2.43 ± 0.32.
NLVYTTDT yielded an amyloid nucleation score of 0.467 ± 0.41.
For NLWLPAWCGLYQCNTGHSGY, the amyloid nucleation score is 7.996 ± 0.043.
With NMEITYLSVFVAVYVHLHFF, the amyloid nucleation score is -0.728 ± 0.88.
In the case of NMGNLFNICETGNLL it was 0.296 ± 0.66; in that of NMGTVMYGVIQACRAHVNVV, 0.22 ± 0.45.
The same measure for NMSINI: “inactive”; for NMVGFILLGY: -0.179 ± 0.29.
In the case of NNCAFYSLRWRKLWLGGMHV it was 8.364 ± 0.056; in that of NNCYLDTSLSNLIRDGSSPV, -0.453 ± 0.64; in that of NNFSSNWWLELWYRYFVYPI, 0.666 ± 0.75.
Substance NNMSIWGMTVTEYLFITNMN came in with an amyloid nucleation score of 0.643 ± 0.53.
The same measure for NNRKYLGRNMAANWGAWFKR: -0.395 ± 0.36; for NPGAYKYHSLSYTSRGGMFV: 0.486 ± 0.38.
In the case of NPGEWYNSYRSNGEGMRLYE it was -0.288 ± 0.88.
The same measure for NPLVFRN: -0.122 ± 0.61.
For the substance NPWVWTLSIEQGRNE, the amyloid nucleation score turned out to be 0.074 ± 0.34.
The same measure for NRAMQVFPI: “inactive”.
The same measure for NRHEILHIVG: 1.67 ± 0.63; for NRHVSRRRHSEISLVRKGGA: -0.313 ± 0.33; for NRNTRLMWNDTVWGIRAARY: -0.279 ± 0.85.
In the case of NRPHTTYFFSFKSQF it was 5.61 ± 0.063; in that of NRSWYIRVLHRATSVSLKSF, -0.226 ± 0.39; in that of NRYPTLFWCVRNRVWECLRV, 0.392 ± 0.46.
As to NRYQRYVPTIEMEPNSSYGN, the amyloid nucleation score entry was “inactive”.
The same measure for NSCRMPYSGV: “inactive”; for NSCWVEKSNTV: 0.043 ± 0.62.
The same measure for NSGNICSVGCGL: 3.09 ± 0.2.
Substance NSHLVFMGMLFLRISDDFVR yielded an amyloid nucleation score of -0.083 ± 1.4.
In the case of NSIHFCGGGRLHSAKLDVSS it was “inactive”; in that of NSIVVTT, 0.114 ± 0.54; in that of NSIVWSMC, 0.409 ± 0.42.
The same measure for NSLCSP: -1.31 ± 1.9; for NSMANREYGYIELDWV: “inactive”.
The same measure for NSRGVSSKYCFGKRIPDGGL: 0.117 ± 0.3; for NSVHWTASGSDSIPTAIESR: 1.58 ± 0.2; for NSVISMAPYLFTCIENVKSK: 0.315 ± 0.42.
For the substance NSVIWRMG, the amyloid nucleation score turned out to be 1.42 ± 0.3.
In the case of NSVWHGLYCSQQRSLRTTRL it was 0.116 ± 0.29.
NSWQLFYLCSQLIRKSSTLC displayed an amyloid nucleation score of 0.029 ± 0.37.
NTDSLLFNLISLMRNRERFK returned an amyloid nucleation score of 0.351 ± 0.54.
In the case of NTIRFAHLLV it was -0.318 ± 0.35.
The same measure for NTTHDGLRCEIRVWSENRRR: 1.39 ± 0.3; for NVCLLGRLRFYVVLTGIRDL: -0.34 ± 0.74; for NVFCPVHENVSRLLQRHTRL: 1.1 ± 0.53.
Turning to NVGSLVHAAW, the amyloid nucleation score was -0.613 ± 1.3.
In the case of NVGVMGFISASVWLFCWGIF it was -0.783 ± 0.33; in that of NVHSYRSLRLDELVMKSMCE, 2.66 ± 0.2; in that of NVNCNRYSWMGDHSCEGRQP, -0.128 ± 0.57.
In the case of NVNEDRPAGALVLEFLNRTL it was 1.47 ± 0.69.
In the case of NVNHSPSGMARRGSHRYKNS it was -0.218 ± 0.34; in that of NVSSCDW, -1.22 ± 0.71.
As for NVSYRSYRFVHWVNLVGSMA, the amyloid nucleation score entry was “inactive”.
In the case of NVWIYPDSMKSNQTDLG it was 1.26 ± 0.74; in that of NWGAISISDRGPQKTDTAWT, -0.048 ± 0.48.
In the case of NWGVIVMFTYYRSSSGNLAC it was 1.35 ± 0.45; in that of NWGVSNRVVWGRVPMLSVPH, -0.284 ± 0.98; in that of NWHAVNCRSPST, 1.07 ± 0.51.
In the case of NWTVFLATNGF it was -0.095 ± 0.85; in that of NWVLGVAYRRLRHKCSMYRV, 0.387 ± 0.67; in that of NWVVFRMRHRLQTSFWGCGE, 0.123 ± 0.57.
With NYEQYLGCSNTEERSSSCTL, the amyloid nucleation score is -0.286 ± 1.2.
In the case of NYNQGRGYRSVSSNIIEGDK it was 1.74 ± 0.49; in that of NYNVTNNALADR, -0.368 ± 1.7.
The same measure for NYRFVCEPYFYSNCPPAQWT: 0.02 ± 0.59.
The same measure for NYTNCTSTDRI: 0.907 ± 0.56; for PARATMSSLRPTSNLPFFPA: -0.459 ± 1.1.
As to PASSCAVVELGMKVGEGGIP, the amyloid nucleation score was -0.386 ± 0.95.
In the case of PAVCLCNGRMDVSKNLWLCF it was 7.445 ± 0.061; in that of PAYRRCRPFFVHAHRFMGST, 0.681 ± 0.44; in that of PCSQPFT, -0.154 ± 0.45.
As to PCTLGFVSSPSDG, the amyloid nucleation score is 0.524 ± 0.46.
In the case of PCVQSHMCYYNMSGITKGFR it was -0.332 ± 0.43; in that of PCWWQFY, 0.167 ± 0.64.
In the case of PDAFKSLLLERRAWIKFVSK it was 1.15 ± 0.7.
In the case of PDDSKFSNV it was 0.902 ± 0.88; in that of PDRGEKLRRLNVWNKPCFGT, 0.829 ± 0.93; in that of PEAGGLHARYVYFVWNSAPC, 2.69 ± 0.28.
For PERTSMGSKFTTDN, the amyloid nucleation score is -0.382 ± 0.43.
In the case of PFCSGALLARLG it was 0.047 ± 0.77; in that of PFFRVVY, “inactive”.
